# Results from US11311631B2, “Paclitaxel-albumin-binding agent compositions and methods for using and making the same” (Mayo Foundation for Medical Education and Research, priority 2016, dated 2022).
# Biological target: T1, CD20+ Daudi lymphoma cells (Homo sapiens, UniProt P11836)
# T1 construct: co-incubated with CD20+ Daudi lymphoma cells for 30 minutes at room temperature; endogenous in cells; host or cells: Daudi lymphoma cells
# T1 sequence (P11836 1-297): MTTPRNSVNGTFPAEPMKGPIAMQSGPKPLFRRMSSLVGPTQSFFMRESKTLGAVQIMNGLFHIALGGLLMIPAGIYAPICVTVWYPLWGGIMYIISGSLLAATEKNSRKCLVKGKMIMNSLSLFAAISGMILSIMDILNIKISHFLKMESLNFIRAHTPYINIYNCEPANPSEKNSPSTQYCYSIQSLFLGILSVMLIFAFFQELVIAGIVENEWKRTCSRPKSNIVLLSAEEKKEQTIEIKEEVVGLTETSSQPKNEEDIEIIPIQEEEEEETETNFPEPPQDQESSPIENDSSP
# Experiment: Daudi cell CD20 blocking (subsequent PE anti-human CD20 staining)
# Assay type: cell-based
# Details: co-incubated with CD20+ Daudi cells 30 minutes at room temperature
# Method: […] show blocking of CD20-positive Daudi cells with isotype control (FIG. 5A), anti-CD20 antibody (FIG. 5B), ABRAXANE® (FIG. 5C), AR160 (FIG. 5D), NTP (FIG. 5E), rituximab-bound NTP (NTRit; FIG. 5F), or rituximab alone (FIG. 5G).
# ABX, AR160, Non-toxic nanoparticle (NTP) and rituximab-bound NTP were prepared as described above or previously (see, e.g., PCT Pub. No. WO2014/055415, which is incorporated herein by reference in its entirety). The nanoparticles and unlabeled rituximab were co-incubated with CD20+ Daudi lymphoma cells for 30 minutes at room temperature. The cells were washed and subsequently stained with PE anti-human CD20. Isotype (FIG. 5A) and anti-CD20 (FIG. 5B) stained cells served as negative and positive controls, respectively.
substance,measurement,value
rituximab: anti-CD20 antibody (Rituxan),blocking of subsequent binding of PE anti-human CD20,block subsequent binding of PE anti-human CD20
